Results: patent publication US20140105889A1 (published 2014)
Residue numbers refer to the chain shown, from its start. Like-named read-outs stand apart in the source and are kept apart here.

How the values were obtained:
mouse FcγRIV [1] = target: T1, mouse FcγRIV (mouse); assay: SPR (Biacore), antibody captured on Protein L, mouse FcγR as analyte, pH 7.4, 25 C
T1 construct: Bought soluble receptor; also called mFcgRIV; mFcgR IV

mouse FcγRIV [2] = target: T1, mouse FcγRIV; assay: SPR (Biacore), antibody captured on Protein L, mouse FcγR as analyte, pH 7.4, 25 C (method of Example 4, RU)
human FcγRIIIa(F) [3] = target: T2, human FcγRIIIa(F) (human, UniProt P08637 17-208, limits assumed); assay: SPR (Biacore), antibody captured on Protein L, human FcγR as analyte, pH 7.4, 25 C
T2 construct: also called hFcgRIIIa(F); hFcgRIIIa

human FcγRIIIa(F) [4] = target: T2, human FcγRIIIa(F); assay: as above; remark: listed apart in the source
human FcRn [5] = target: T3, human FcRn (human); assay: SPR (Biacore), pH 7.0, 25 C; antibody captured on Protein L, human FcRn injected
T3 construct: Soluble human FcRn complexed with beta2-microglobulin; also called hFcRn; soluble human FcRn complexed with β2-microglobulin

human FcRn [6] = target: T4, human FcRn (human); assay: SPR (Biacore), antibody captured by Protein L, human FcRn as analyte, pH 7.0
T4 construct: Soluble human FcRn complexed with β2-microglobulin; also called hFcRn; soluble human FcRn complexed with β2-microglobulin

human FcRn [7] = target: T3, human FcRn; assay: SPR (Biacore), pH 7.0, 25 C; antibody captured on Protein L, human FcRn injected; remark: listed apart in the source
human FcRn [8] = target: T4, human FcRn; assay: SPR (Biacore), antibody captured by Protein L, human FcRn as analyte, pH 7.0; remark: listed apart in the source
human FcRn [9] = target: T4, human FcRn; assay: as above; remark: listed apart in the source
human FcRn [10] = target: T5, human FcRn (human); assay: SPR (Biacore), pH 7.0, 25 C, antibody captured by Protein L, human FcRn as analyte
T5 construct: also called hFcRn; soluble human FcRn complexed with β2-microglobulin

[11] = target: T6, human FcRn (soluble human FcRn complexed with beta2-microglobulin) (human, UniProt P61769 21-119); assay: as above
T6 construct: also called hFcRn
T6 sequence (chain, as listed by the source limits assumed, chain 1 of 2): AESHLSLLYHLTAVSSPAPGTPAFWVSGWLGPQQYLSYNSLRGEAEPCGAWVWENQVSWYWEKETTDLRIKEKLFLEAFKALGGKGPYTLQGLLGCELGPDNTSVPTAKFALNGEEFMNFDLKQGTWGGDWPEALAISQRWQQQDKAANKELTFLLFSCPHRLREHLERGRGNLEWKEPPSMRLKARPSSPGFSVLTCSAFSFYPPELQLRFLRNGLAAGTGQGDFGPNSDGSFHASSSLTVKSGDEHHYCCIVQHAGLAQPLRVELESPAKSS
T6 sequence (P61769 21-119 limits assumed, chain 2 of 2): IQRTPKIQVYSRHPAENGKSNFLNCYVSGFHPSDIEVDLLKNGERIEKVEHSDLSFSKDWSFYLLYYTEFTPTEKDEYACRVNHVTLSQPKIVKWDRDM

T2 sequence (P08637 other isoform, or with tags, fused parts or gaps limits assumed): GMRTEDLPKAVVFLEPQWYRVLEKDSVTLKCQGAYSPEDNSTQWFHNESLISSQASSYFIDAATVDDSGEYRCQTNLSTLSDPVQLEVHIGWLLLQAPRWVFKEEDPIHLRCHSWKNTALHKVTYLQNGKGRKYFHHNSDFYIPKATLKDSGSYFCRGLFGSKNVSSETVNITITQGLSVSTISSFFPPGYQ
T1 sequence (A0A0B4J1G0 21-203): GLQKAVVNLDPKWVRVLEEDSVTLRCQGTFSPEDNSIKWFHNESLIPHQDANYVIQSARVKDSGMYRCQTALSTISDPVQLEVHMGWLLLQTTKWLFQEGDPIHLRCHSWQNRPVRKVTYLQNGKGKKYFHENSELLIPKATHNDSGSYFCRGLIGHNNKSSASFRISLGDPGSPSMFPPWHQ

B1: antibody with VH3-IgG1-F947 heavy chain and L(WT)-CK light chain (antibody)
heavy: QVQLQESGPGLVKPSETLSLTCAVSGHSISHDHAWSWVRQPPGEGLEWIGFISYSGITNYNPSLQGRVTISRDNSKNTLYLQMNSLRAEDTAVYYCARSLARTTAMDYWGEGTLVTVSSASTKGPSVFPLAPSSKSTSGGTAALGCLVKDYFPEPVTVSWNSGALTSGVHTFPAVLQSSGLYSLSSVVTVPSSSLGTQTYICNVNHKPSNTKVDKKVEPKSCDKTHTCPPCPAPELLGGPSVFLFPPKPKDVLYISRTPEVTCVVVDVSHEDPEVKFNWYVDGVEVHNAKTKPREEQYNSTYRVVSVLQPLHADWLNGKEYKCKVSNKALPAPIEKTISKAKGQPREPQVYTLPPSRDELTKNQVSLTCLVKGFYPSDIAVEWESNGQPENNYKTTPPVLDSDGSFFLYSKLTVDKSRWQQGNVFSCSVMHEALHYHVTQKSLSLSP
light: not shown
notes: copies: 2 + 2
Mouse FcγRIV [1]
  BINDING AMOUNT (RU): 242 RU
Mouse FcγRIV [2]
  BINDING AMOUNT: 279

B2: VH3/L(WT)-IgG1-F698 (antibody, name in EU numbering)
heavy: B1 heavy with V252T, N288E, P310V, V438Y
light: not shown
notes: The positions are EU numbering, not positions on the entry; copies: 2 + 2
Human FcγRIIIa(F) [3]
  BINDING AMOUNT (RU): 55.9 RU
Human FcγRIIIa(F) [4]
  BINDING AMOUNT (RU): 55.9 RU

B3: IgG1-F755 (antibody)
heavy: B1 heavy with P240D, V252S, Q309T, P310V, A313Q, V438Y
light: not shown
notes: Substitutions by EU numbering; copies: 2 + 2
Human FcRn [5]
  Kd: 350 nM

B4: IgG1-F1340 (antibody, name in EU numbering)
heavy: B1 heavy with L237R, S241K, V252T, S256T, T258E, Q309T, P310V, A313Q, Q440K, S442E
light: not shown
notes: light chain L(WT)-CK; copies: 2 + 2
Human FcRn [6]
  Kd: 55.8 nM

B5: IgG1-F802 (antibody)
heavy: B1 heavy with V252T, Q309T, P310V, A313Q, N317V, V438Y
light: not shown
notes: as for B3
Human FcRn [7]
  Kd: 330 nM

B6: IgG1-F770 (antibody)
heavy: B1 heavy with V252T, T258A, Q309T, P310V, A313Q, V438Y
light: not shown
notes: as for B3
Human FcRn [5]
  Kd: 300 nM

B7: VH3/L(WT)-IgG1-F763 (antibody, name in EU numbering)
heavy: B1 heavy with L237R, S241K, V252T, N288E, P310V, V438Y
light: not shown
notes: as for B2
Human FcγRIIIa(F) [4]
  BINDING AMOUNT (RU): -2.9 RU

B8: IgG1-F1369 (antibody, name in EU numbering)
heavy: QVQLQESGPGLVKPSETLSLTCAVSGHSISHDHAWSWVRQPPGEGLEWIGFISYSGITNYNPSLQGRVTISRDNSKNTLYLQMNSLRAEDTAVYYCARSLARTTAMDYWGEGTLVTVSSASTKGPSVFPLAPSSKSTSGGTAALGCLVKDYFPEPVTVSWNSGALTSGVHTFPAVLQSSGLYSLSSVVTVPSSSLGTQTYICNVNHKPSNTKVDKKVEPKSCDKTHTCPPCPAPELRGGPKVFLFPPKPKDTLYITREPEVTCVVVDVSHEDPEVKFNWYVDGVEVHNAKTKPREEQYNSTYRVVSVLTVLHQDWLNGKEYKCKVSNKALPAPIEKTISKAKGQPREPQVYTLPPSRDELTKNQVSLTCLVKGFYPSDIAVEWESNGQPENNYKTTPPVLDSDGSFFLYSKLTVDKSRWQQGNVFSCSVMHEALHYHFTRKELSLSP
light: not shown
notes: as for B4
Human FcRn [8]
  Kd: 76 nM

B9: IgG1-F1288 (antibody, name in EU numbering)
heavy: B8 heavy with T256S, F438V, R440K, E442D
light: not shown
notes: as for B4
Human FcRn [9]
  Kd: 79.5 nM

B10: IgG1-F1289 (antibody, name in EU numbering)
heavy: B8 heavy with T256S, H435D, F438V
light: not shown
notes: as for B4
Human FcRn [9]
  Kd: 133 nM

B11: F1211 (antibody, human IgG1, kappa, name in EU numbering)
heavy: B1 heavy with V252T, L253H, Q309T, P310V, A313Q
light: not shown
notes: copies: 2 + 2
Human FcRn [10]
  Kd: 1230 nM

B12: IgG1-F1039 (antibody, name in EU numbering)
heavy: B1 heavy with L237K, P240D, S241K, V252T, Q309T, P310V, A313Q
light: not shown
[11]
  Kd: 130 nM

B13: IgG1-F1335 (antibody, name in EU numbering)
heavy: B8 heavy with G238R, E258T, F438V, R440K, E442D
light: not shown
notes: as for B4
Human FcRn [6]
  Kd: 87.8 nM

B14: IgG1-F1031 (antibody, name in EU numbering)
heavy: B1 heavy with G238A, S241D, P310V, I334E
light: not shown
[11]
  Kd: 53 nM

B15: IgG1-F1364 (antibody, name in EU numbering)
heavy: B8 heavy with T256S, R440K
light: not shown
notes: as for B4
Human FcRn [8]
  Kd: 74.9 nM
